According to publication PMC3581772:

Columns and labels:
[1] = molecular target: T1, I59T human lysozyme (human) (UniProt P61626)
T1 sequence: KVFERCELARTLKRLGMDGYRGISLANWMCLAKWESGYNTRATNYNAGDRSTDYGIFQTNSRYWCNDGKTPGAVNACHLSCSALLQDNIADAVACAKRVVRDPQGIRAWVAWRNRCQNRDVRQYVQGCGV

[2] = molecular target: amyloid β peptide Aβ(1–42) (UniProt P05067)

Sequence of trypsin-activated α2M (P01023 whole entry, looked up): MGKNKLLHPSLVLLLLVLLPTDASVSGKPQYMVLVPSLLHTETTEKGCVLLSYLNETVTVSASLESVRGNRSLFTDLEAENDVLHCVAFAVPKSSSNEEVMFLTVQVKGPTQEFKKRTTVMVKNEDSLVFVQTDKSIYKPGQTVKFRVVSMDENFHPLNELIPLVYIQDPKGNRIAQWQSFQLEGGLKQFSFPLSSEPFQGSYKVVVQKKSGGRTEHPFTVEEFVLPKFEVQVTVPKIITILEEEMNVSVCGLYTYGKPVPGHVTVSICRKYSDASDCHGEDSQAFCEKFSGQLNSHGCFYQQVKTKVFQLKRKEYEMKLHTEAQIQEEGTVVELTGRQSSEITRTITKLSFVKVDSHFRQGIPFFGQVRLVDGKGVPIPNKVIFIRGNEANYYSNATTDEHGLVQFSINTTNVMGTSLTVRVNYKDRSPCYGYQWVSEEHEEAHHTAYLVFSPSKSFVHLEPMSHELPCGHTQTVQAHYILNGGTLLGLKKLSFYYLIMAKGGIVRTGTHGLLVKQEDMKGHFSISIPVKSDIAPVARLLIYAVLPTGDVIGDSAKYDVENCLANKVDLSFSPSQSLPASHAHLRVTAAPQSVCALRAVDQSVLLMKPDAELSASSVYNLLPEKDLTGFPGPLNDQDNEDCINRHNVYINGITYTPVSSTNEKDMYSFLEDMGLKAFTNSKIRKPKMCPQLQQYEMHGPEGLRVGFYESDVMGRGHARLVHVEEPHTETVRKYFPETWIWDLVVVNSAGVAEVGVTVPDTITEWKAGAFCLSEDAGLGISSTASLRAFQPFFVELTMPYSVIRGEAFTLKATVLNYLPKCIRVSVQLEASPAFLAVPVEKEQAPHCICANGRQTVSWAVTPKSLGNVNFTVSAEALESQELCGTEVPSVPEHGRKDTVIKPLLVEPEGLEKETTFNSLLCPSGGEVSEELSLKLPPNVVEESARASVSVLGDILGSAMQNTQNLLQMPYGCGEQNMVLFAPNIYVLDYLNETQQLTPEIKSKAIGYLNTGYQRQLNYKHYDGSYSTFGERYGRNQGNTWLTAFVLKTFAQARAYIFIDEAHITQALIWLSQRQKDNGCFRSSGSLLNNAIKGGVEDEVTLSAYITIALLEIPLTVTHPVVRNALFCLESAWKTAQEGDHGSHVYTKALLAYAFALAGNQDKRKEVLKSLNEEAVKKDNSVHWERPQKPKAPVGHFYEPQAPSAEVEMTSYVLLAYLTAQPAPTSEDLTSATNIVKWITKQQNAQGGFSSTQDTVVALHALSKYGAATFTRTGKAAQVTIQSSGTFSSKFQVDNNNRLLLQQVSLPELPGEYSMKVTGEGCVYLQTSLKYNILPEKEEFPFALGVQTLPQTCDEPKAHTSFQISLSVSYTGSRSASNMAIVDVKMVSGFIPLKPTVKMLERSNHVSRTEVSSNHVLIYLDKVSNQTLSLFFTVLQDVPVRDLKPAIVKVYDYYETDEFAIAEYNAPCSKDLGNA

decrease of ThT fluorescence at the endpoint of I59T lysozyme fibril formation, lysozyme-to-α2M 10:1 [1]: > 90%
suppression of ThT signal at the endpoint of Aβ(1–42) fibril formation, Aβ-to-α2M 10:1 [2]: > 80%
Substance: trypsin-activated α2M (from UniProt P01023 24-1474) (complex)
